Data reported in publication PMC10786891, “Massively parallel profiling of RNA-targeting CRISPR-Cas13d”.

T1: EsCas13d, nuclease-dead (Eubacterium siraeum, UniProt B0MS50, R295A;H300A;R849A;H854A)
T1 sequence: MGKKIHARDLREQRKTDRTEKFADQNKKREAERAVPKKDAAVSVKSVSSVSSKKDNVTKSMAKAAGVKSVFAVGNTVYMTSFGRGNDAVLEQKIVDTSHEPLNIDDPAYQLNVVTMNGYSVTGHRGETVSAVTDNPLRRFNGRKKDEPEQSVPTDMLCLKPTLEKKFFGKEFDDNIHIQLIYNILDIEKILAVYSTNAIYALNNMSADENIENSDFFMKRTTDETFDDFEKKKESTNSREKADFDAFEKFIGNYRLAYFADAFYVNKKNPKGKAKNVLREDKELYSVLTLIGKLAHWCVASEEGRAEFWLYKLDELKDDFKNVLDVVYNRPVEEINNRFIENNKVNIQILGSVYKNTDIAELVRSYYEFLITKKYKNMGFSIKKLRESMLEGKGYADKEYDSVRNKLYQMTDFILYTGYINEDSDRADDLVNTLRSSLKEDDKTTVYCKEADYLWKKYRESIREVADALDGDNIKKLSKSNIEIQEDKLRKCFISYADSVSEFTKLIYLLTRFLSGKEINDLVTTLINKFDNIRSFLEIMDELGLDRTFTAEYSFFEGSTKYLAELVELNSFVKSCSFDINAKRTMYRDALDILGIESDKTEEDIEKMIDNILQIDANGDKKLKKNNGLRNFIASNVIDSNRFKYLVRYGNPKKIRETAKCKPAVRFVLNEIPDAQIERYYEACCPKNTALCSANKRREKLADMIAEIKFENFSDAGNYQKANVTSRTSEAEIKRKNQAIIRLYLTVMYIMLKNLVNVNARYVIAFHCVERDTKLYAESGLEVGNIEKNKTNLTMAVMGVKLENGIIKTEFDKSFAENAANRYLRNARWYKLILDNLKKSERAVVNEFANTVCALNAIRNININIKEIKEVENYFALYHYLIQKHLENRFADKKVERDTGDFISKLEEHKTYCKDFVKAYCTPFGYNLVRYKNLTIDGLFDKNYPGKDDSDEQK

B1: target 1 insG 3' of 16,insC 3' of 12 (mixed)
RNA 1: CACCCGUGCAAAAAUGCAGGGGUCUAAAACUGAGCGGAUAACCUCUCUAUGG
RNA 2: GGGAAUGGAUCCACAUCUACGAAUUCGUACCAUAGAGGAGGCUUAUCCGCUCACCGAGAUCGGAAGAGCACACGU
B2: target 1 insC 3' of 16,insG 3' of 8 (mixed)
RNA 1: CACCCGUGCAAAAAUGCAGGGGUCUAAAACUGAGCGGAUAACCUCUCUAUGG
RNA 2: GGGAAUGGAUCCACAUCUACGAAUUCGUACCAUAGACGAGGUUAUGCCGCUCACCGAGAUCGGAAGAGCACACGU
B3: target 1 insU 3' of 13,insU 3' of 1 (mixed)
RNA 1: CACCCGUGCAAAAAUGCAGGGGUCUAAAACUGAGCGGAUAACCUCUCUAUGG
RNA 2: GGGAAUGGAUCCACAUCUACGAAUUCGUACCAUAGAGAGUGUUAUCCGCUCAUCCGAGAUCGGAAGAGCACACGU
B4: target 1 insU 3' of 6,insG 3' of 1 (mixed)
RNA 1: CACCCGUGCAAAAAUGCAGGGGUCUAAAACUGAGCGGAUAACCUCUCUAUGG
RNA 2: GGGAAUGGAUCCACAUCUACGAAUUCGUACCAUAGAGAGGUUAUCCUGCUCAGCCGAGAUCGGAAGAGCACACGU
B5: target 1 insC 3' of 18,insU 3' of 1 (mixed)
RNA 1: CACCCGUGCAAAAAUGCAGGGGUCUAAAACUGAGCGGAUAACCUCUCUAUGG
RNA 2: GGGAAUGGAUCCACAUCUACGAAUUCGUACCAUACGAGAGGUUAUCCGCUCAUCCGAGAUCGGAAGAGCACACGU
B6: target 1 insA 3' of 17,insA 3' of 8 (mixed)
RNA 1: CACCCGUGCAAAAAUGCAGGGGUCUAAAACUGAGCGGAUAACCUCUCUAUGG
RNA 2: GGGAAUGGAUCCACAUCUACGAAUUCGUACCAUAGAAGAGGUUAUACCGCUCACCGAGAUCGGAAGAGCACACGU
B7: target 1 C4G,G12A (mixed)
RNA 1: CACCCGUGCAAAAAUGCAGGGGUCUAAAACUGAGCGGAUAACCUCUCUAUGG
RNA 2: GGGAAUGGAUCCACAUCUACGAAUUCGUACCAUAGAGAGAUUAUCCGGUCACCGAGAUCGGAAGAGCACACGU
B8: target 1 G13A,A14G (mixed)
RNA 1: CACCCGUGCAAAAAUGCAGGGGUCUAAAACUGAGCGGAUAACCUCUCUAUGG
RNA 2: GGGAAUGGAUCCACAUCUACGAAUUCGUACCAUAGAGGAGUUAUCCGCUCACCGAGAUCGGAAGAGCACACGU
B9: target 1 insC 3' of 11,insC 3' of 10 (mixed)
RNA 1: CACCCGUGCAAAAAUGCAGGGGUCUAAAACUGAGCGGAUAACCUCUCUAUGG
RNA 2: GGGAAUGGAUCCACAUCUACGAAUUCGUACCAUAGAGAGGUCUCAUCCGCUCACCGAGAUCGGAAGAGCACACGU
B10: target 1 insG 3' of 22,insA 3' of 21 (mixed)
RNA 1: CACCCGUGCAAAAAUGCAGGGGUCUAAAACUGAGCGGAUAACCUCUCUAUGG
RNA 2: GGGAAUGGAUCCACAUCUACGAAUUCGUACGCAAUAGAGAGGUUAUCCGCUCACCGAGAUCGGAAGAGCACACGU
B11: target 1 U3A,G13C (mixed)
RNA 1: CACCCGUGCAAAAAUGCAGGGGUCUAAAACUGAGCGGAUAACCUCUCUAUGG
RNA 2: GGGAAUGGAUCCACAUCUACGAAUUCGUACCAUAGAGACGUUAUCCGCACACCGAGAUCGGAAGAGCACACGU
B12: target 1 C2A,C21A (mixed)
RNA 1: CACCCGUGCAAAAAUGCAGGGGUCUAAAACUGAGCGGAUAACCUCUCUAUGG
RNA 2: GGGAAUGGAUCCACAUCUACGAAUUCGUACAAUAGAGAGGUUAUCCGCUAACCGAGAUCGGAAGAGCACACGU
B13: target 1 insC 3' of 20,insC 3' of 5 (mixed)
RNA 1: CACCCGUGCAAAAAUGCAGGGGUCUAAAACUGAGCGGAUAACCUCUCUAUGG
RNA 2: GGGAAUGGAUCCACAUCUACGAAUUCGUACCACUAGAGAGGUUAUCCGCCUCACCGAGAUCGGAAGAGCACACGU
B14: target 1 insC 3' of 20,insG 3' of 11 (mixed)
RNA 1: CACCCGUGCAAAAAUGCAGGGGUCUAAAACUGAGCGGAUAACCUCUCUAUGG
RNA 2: GGGAAUGGAUCCACAUCUACGAAUUCGUACCACUAGAGAGGUGUAUCCGCUCACCGAGAUCGGAAGAGCACACGU
B15: target 1 insU 3' of 9,insG 3' of 7 (mixed)
RNA 1: CACCCGUGCAAAAAUGCAGGGGUCUAAAACUGAGCGGAUAACCUCUCUAUGG
RNA 2: GGGAAUGGAUCCACAUCUACGAAUUCGUACCAUAGAGAGGUUAUUCGCGCUCACCGAGAUCGGAAGAGCACACGU
B16: target 1 A9U,U19C (mixed)
RNA 1: CACCCGUGCAAAAAUGCAGGGGUCUAAAACUGAGCGGAUAACCUCUCUAUGG
RNA 2: GGGAAUGGAUCCACAUCUACGAAUUCGUACCACAGAGAGGUUUUCCGCUCACCGAGAUCGGAAGAGCACACGU
B17: target 1 insU 3' of 21,insU 3' of 4 (mixed)
RNA 1: CACCCGUGCAAAAAUGCAGGGGUCUAAAACUGAGCGGAUAACCUCUCUAUGG
RNA 2: GGGAAUGGAUCCACAUCUACGAAUUCGUACCUAUAGAGAGGUUAUCCGCUUCACCGAGAUCGGAAGAGCACACGU
B18: target 1 del2,del14 (mixed)
RNA 1: CACCCGUGCAAAAAUGCAGGGGUCUAAAACUGAGCGGAUAACCUCUCUAUGG
RNA 2: GGGAAUGGAUCCACAUCUACGAAUUCGUACCAUAGAGGGUUAUCCGCUACCGAGAUCGGAAGAGCACACGU
B19: target 1 insC 3' of 22,insA 3' of 13 (mixed)
RNA 1: CACCCGUGCAAAAAUGCAGGGGUCUAAAACUGAGCGGAUAACCUCUCUAUGG
RNA 2: GGGAAUGGAUCCACAUCUACGAAUUCGUACCCAUAGAGAGAGUUAUCCGCUCACCGAGAUCGGAAGAGCACACGU
B20: target 1 G13C,C21U (mixed)
RNA 1: CACCCGUGCAAAAAUGCAGGGGUCUAAAACUGAGCGGAUAACCUCUCUAUGG
RNA 2: GGGAAUGGAUCCACAUCUACGAAUUCGUACUAUAGAGACGUUAUCCGCUCACCGAGAUCGGAAGAGCACACGU
B21: target 1 insA 3' of 22,insU 3' of 7 (mixed)
RNA 1: CACCCGUGCAAAAAUGCAGGGGUCUAAAACUGAGCGGAUAACCUCUCUAUGG
RNA 2: GGGAAUGGAUCCACAUCUACGAAUUCGUACACAUAGAGAGGUUAUCUCGCUCACCGAGAUCGGAAGAGCACACGU
B22: target 1 insA 3' of 12,insU 3' of 2 (mixed)
RNA 1: CACCCGUGCAAAAAUGCAGGGGUCUAAAACUGAGCGGAUAACCUCUCUAUGG
RNA 2: GGGAAUGGAUCCACAUCUACGAAUUCGUACCAUAGAGAGGAUUAUCCGCUCUACCGAGAUCGGAAGAGCACACGU
B23: target 1 insC 3' of 10,insU 3' of 5 (mixed)
RNA 1: CACCCGUGCAAAAAUGCAGGGGUCUAAAACUGAGCGGAUAACCUCUCUAUGG
RNA 2: GGGAAUGGAUCCACAUCUACGAAUUCGUACCAUAGAGAGGUUCAUCCGUCUCACCGAGAUCGGAAGAGCACACGU
B24: target 1 insA 3' of 19,insA 3' of 17 (mixed)
RNA 1: CACCCGUGCAAAAAUGCAGGGGUCUAAAACUGAGCGGAUAACCUCUCUAUGG
RNA 2: GGGAAUGGAUCCACAUCUACGAAUUCGUACCAUAAGAAGAGGUUAUCCGCUCACCGAGAUCGGAAGAGCACACGU
B25: target 1 insA 3' of 13,insG 3' of 8 (mixed)
RNA 1: CACCCGUGCAAAAAUGCAGGGGUCUAAAACUGAGCGGAUAACCUCUCUAUGG
RNA 2: GGGAAUGGAUCCACAUCUACGAAUUCGUACCAUAGAGAGAGUUAUGCCGCUCACCGAGAUCGGAAGAGCACACGU
B26: target 1 complement block 1-8 (mixed)
RNA 1: CACCCGUGCAAAAAUGCAGGGGUCUAAAACUGAGCGGAUAACCUCUCUAUGG
RNA 2: GGGAAUGGAUCCACAUCUACGAAUUCGUACCAUAGAGAGGUUAAGGCGAGUCCGAGAUCGGAAGAGCACACGU
B27: target 1 insA 3' of 5,insG 3' of 4 (mixed)
RNA 1: CACCCGUGCAAAAAUGCAGGGGUCUAAAACUGAGCGGAUAACCUCUCUAUGG
RNA 2: GGGAAUGGAUCCACAUCUACGAAUUCGUACCAUAGAGAGGUUAUCCGACGUCACCGAGAUCGGAAGAGCACACGU
B28: target 1 insC 3' of 22,insU 3' of 15 (mixed)
RNA 1: CACCCGUGCAAAAAUGCAGGGGUCUAAAACUGAGCGGAUAACCUCUCUAUGG
RNA 2: GGGAAUGGAUCCACAUCUACGAAUUCGUACCCAUAGAGUAGGUUAUCCGCUCACCGAGAUCGGAAGAGCACACGU

The binders below were run against T1, EsCas13d, nuclease-dead (assay: crRNA (strand 1, pre-loaded); Mg2+; 40 mM Tris-HCl pH 7.5, 150 mM NaCl, 6 mM MgCl2, 1 mM DTT, 0.1% Tween-20, 0.2 mg/ml BSA; 25 C; 10 min per concentration, then washed). Conditions: tags: His6-TwinStrep-SUMO cleaved; N-terminal SNAP kept (SNAP-Surface 488); label: 3' end held by stalled T7 RNA polymerase.

With B1 as the binder, how does the Kd read?
Its Kd is 47 ± 13 nM.

How did the Kd turn out when B2 was run?
The Kd was 56 ± 13 nM.

For B3, which Kd is on record?
Its Kd is 14.8 ± 1.7 nM.

B4 was tested. Which Kd did it give?
Its Kd is 12.5 ± 0.8 nM.

Which Kd does the source give for B5 here?
Its Kd is 30.7 ± 2.6 nM.

With B6 as the binder, how does the Kd read?
Its Kd is 16.1 ± 1.2 nM.

How did the Kd turn out when B7 was run?
The Kd was 3.39 ± 0.29 nM.

With B8 as the binder, how does the Kd read?
The Kd was 17.2 ± 1.6 nM.

For B9, which Kd is on record?
The Kd was 29 ± 4 nM.

How did the Kd turn out when B10 was run?
Its Kd is 27.4 ± 2.6 nM.

Which Kd does the source give for B11 here?
Its Kd is 32.2 ± 3.2 nM.

Which Kd does the source give for B12 here?
The Kd was 38 ± 6 nM.

For B13, which Kd is on record?
The Kd was 5.23 ± 0.33 nM.

How did the Kd turn out when B14 was run?
Its Kd is 6.6 ± 0.5 nM.

How did the Kd turn out when B15 was run?
The Kd was 10.6 ± 0.5 nM.

With B16 as the binder, how does the Kd read?
Its Kd is 26.3 ± 2.9 nM.

With B17 as the binder, how does the Kd read?
The Kd was 21.8 ± 1 nM.

How did the Kd turn out when B18 was run?
Its Kd is 64 ± 11 nM.

Which Kd does the source give for B19 here?
The Kd was 13.4 ± 2 nM.

B20 was tested. Which Kd did it give?
Its Kd is 5.6 ± 0.7 nM.

B21 was tested. Which Kd did it give?
Its Kd is 15.3 ± 0.7 nM.

Which Kd does the source give for B22 here?
The Kd was 40 ± 5 nM.

B23 was tested. Which Kd did it give?
The Kd was 14 ± 2.4 nM.

For B24, which Kd is on record?
The Kd was 37 ± 5 nM.

B25 was tested. Which Kd did it give?
The Kd was 5.4 ± 0.5 nM.

With B26 as the binder, how does the Kd read?
Its Kd is 11.4 ± 0.4 nM.

How did the Kd turn out when B27 was run?
Its Kd is 6.6 ± 0.6 nM.

How did the Kd turn out when B28 was run?
Its Kd is 29 ± 10 nM.
